Test results published in patent publication US20150344570A1 (published 2015).

T1: FcγRIIa R (human, UniProt P12318 34-217)
T1 construct: extracellular domain; Soluble His-tagged extracellular domain expressed in FreeStyle293 cells; analyte in Biacore; also called FcgRIIa R; FcgRIIaR; not shown: His tag attached to the C terminus
T1 sequence (looked up): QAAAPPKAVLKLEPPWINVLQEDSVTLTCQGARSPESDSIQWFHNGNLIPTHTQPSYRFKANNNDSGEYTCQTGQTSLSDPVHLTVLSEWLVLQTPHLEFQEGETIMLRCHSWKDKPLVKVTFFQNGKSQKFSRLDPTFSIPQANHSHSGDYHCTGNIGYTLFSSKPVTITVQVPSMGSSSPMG

T2: FcγRIIb (human, UniProt P31994 43-217)
T2 construct: extracellular domain; Soluble His-tagged extracellular domain expressed in FreeStyle293 cells; analyte in Biacore; also called FcgRIIb; 2b; not shown: His tag attached to the C terminus
T2 sequence (looked up): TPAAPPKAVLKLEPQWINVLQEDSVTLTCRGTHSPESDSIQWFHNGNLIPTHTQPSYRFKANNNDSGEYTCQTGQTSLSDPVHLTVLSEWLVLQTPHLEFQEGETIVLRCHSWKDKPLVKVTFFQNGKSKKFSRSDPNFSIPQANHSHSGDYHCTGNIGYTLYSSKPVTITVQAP

B1: GpH7-A5/GpH7-B3 variant A330_14T/GpL16-k0 (antibody, human IgG1, kappa)
heavy 1: not shown
heavy 2: not shown
light: DIVMTQSPLSLPVTPGEPASISCQASESLVHSNRNTYLHWYLQKPGQSPQLLIYKVSNRFSGVPDRFSGSGSGTDFTLKISRVEAEDVGVYYCSQNTHVPPTFGQGTKVEIERTVAAPSVFIFPPSDEQLKSGTASVVCLLNNFYPREAKVQWKVDNALQSGNSQESVTEQDSKDSTYSLSSTLTLSKADYEKHKVYACEVTHQGLSSPVTKSFNRGEC
notes: Heterodimerized anti-glypican-3 IgG1 antibody; alteration only in the GpH7-B3 H chain; position in EU numbering; also called He Ab
B2: GpH7-A5/GpH7-B3 variant P329_03V/GpL16-k0 (antibody, human IgG1, kappa)
heavy 1: not shown
heavy 2: not shown
light: DIVMTQSPLSLPVTPGEPASISCQASESLVHSNRNTYLHWYLQKPGQSPQLLIYKVSNRFSGVPDRFSGSGSGTDFTLKISRVEAEDVGVYYCSQNTHVPPTFGQGTKVEIERTVAAPSVFIFPPSDEQLKSGTASVVCLLNNFYPREAKVQWKVDNALQSGNSQESVTEQDSKDSTYSLSSTLTLSKADYEKHKVYACEVTHQGLSSPVTKSFNRGEC
notes: as for B1
B3: GpH7-A5/GpH7-B3 variant N325_11K/GpL16-k0 (antibody, human IgG1, kappa)
heavy 1: not shown
heavy 2: not shown
light: DIVMTQSPLSLPVTPGEPASISCQASESLVHSNRNTYLHWYLQKPGQSPQLLIYKVSNRFSGVPDRFSGSGSGTDFTLKISRVEAEDVGVYYCSQNTHVPPTFGQGTKVEIERTVAAPSVFIFPPSDEQLKSGTASVVCLLNNFYPREAKVQWKVDNALQSGNSQESVTEQDSKDSTYSLSSTLTLSKADYEKHKVYACEVTHQGLSSPVTKSFNRGEC
notes: as for B1
B4: GpH7-A5/GpH7-B3 variant N325_16H/GpL16-k0 (antibody, human IgG1, kappa)
heavy 1: not shown
heavy 2: not shown
light: DIVMTQSPLSLPVTPGEPASISCQASESLVHSNRNTYLHWYLQKPGQSPQLLIYKVSNRFSGVPDRFSGSGSGTDFTLKISRVEAEDVGVYYCSQNTHVPPTFGQGTKVEIERTVAAPSVFIFPPSDEQLKSGTASVVCLLNNFYPREAKVQWKVDNALQSGNSQESVTEQDSKDSTYSLSSTLTLSKADYEKHKVYACEVTHQGLSSPVTKSFNRGEC
notes: as for B1
B5: GpH7-A5/GpH7-B3 variant N325_05P/GpL16-k0 (antibody, human IgG1, kappa)
heavy 1: not shown
heavy 2: not shown
light: DIVMTQSPLSLPVTPGEPASISCQASESLVHSNRNTYLHWYLQKPGQSPQLLIYKVSNRFSGVPDRFSGSGSGTDFTLKISRVEAEDVGVYYCSQNTHVPPTFGQGTKVEIERTVAAPSVFIFPPSDEQLKSGTASVVCLLNNFYPREAKVQWKVDNALQSGNSQESVTEQDSKDSTYSLSSTLTLSKADYEKHKVYACEVTHQGLSSPVTKSFNRGEC
notes: as for B1
B6: GpH7-A5/GpH7-B3 variant P329_06M/GpL16-k0 (antibody, human IgG1, kappa)
heavy 1: not shown
heavy 2: not shown
light: DIVMTQSPLSLPVTPGEPASISCQASESLVHSNRNTYLHWYLQKPGQSPQLLIYKVSNRFSGVPDRFSGSGSGTDFTLKISRVEAEDVGVYYCSQNTHVPPTFGQGTKVEIERTVAAPSVFIFPPSDEQLKSGTASVVCLLNNFYPREAKVQWKVDNALQSGNSQESVTEQDSKDSTYSLSSTLTLSKADYEKHKVYACEVTHQGLSSPVTKSFNRGEC
notes: as for B1
B7: GpH7-A5/GpH7-B3 variant P329_07I/GpL16-k0 (antibody, human IgG1, kappa)
heavy 1: not shown
heavy 2: not shown
light: DIVMTQSPLSLPVTPGEPASISCQASESLVHSNRNTYLHWYLQKPGQSPQLLIYKVSNRFSGVPDRFSGSGSGTDFTLKISRVEAEDVGVYYCSQNTHVPPTFGQGTKVEIERTVAAPSVFIFPPSDEQLKSGTASVVCLLNNFYPREAKVQWKVDNALQSGNSQESVTEQDSKDSTYSLSSTLTLSKADYEKHKVYACEVTHQGLSSPVTKSFNRGEC
notes: as for B1
B8: GpH7-A5/GpH7-B3 variant P329_02A/GpL16-k0 (antibody, human IgG1, kappa)
heavy 1: not shown
heavy 2: not shown
light: DIVMTQSPLSLPVTPGEPASISCQASESLVHSNRNTYLHWYLQKPGQSPQLLIYKVSNRFSGVPDRFSGSGSGTDFTLKISRVEAEDVGVYYCSQNTHVPPTFGQGTKVEIERTVAAPSVFIFPPSDEQLKSGTASVVCLLNNFYPREAKVQWKVDNALQSGNSQESVTEQDSKDSTYSLSSTLTLSKADYEKHKVYACEVTHQGLSSPVTKSFNRGEC
notes: as for B1
B9: GpH7-A5/GpH7-B3 variant N325_19Q/GpL16-k0 (antibody, human IgG1, kappa)
heavy 1: not shown
heavy 2: not shown
light: DIVMTQSPLSLPVTPGEPASISCQASESLVHSNRNTYLHWYLQKPGQSPQLLIYKVSNRFSGVPDRFSGSGSGTDFTLKISRVEAEDVGVYYCSQNTHVPPTFGQGTKVEIERTVAAPSVFIFPPSDEQLKSGTASVVCLLNNFYPREAKVQWKVDNALQSGNSQESVTEQDSKDSTYSLSSTLTLSKADYEKHKVYACEVTHQGLSSPVTKSFNRGEC
notes: as for B1
B10: GpH7-A5/GpH7-B3 variant N325_02A/GpL16-k0 (antibody, human IgG1, kappa)
heavy 1: not shown
heavy 2: not shown
light: DIVMTQSPLSLPVTPGEPASISCQASESLVHSNRNTYLHWYLQKPGQSPQLLIYKVSNRFSGVPDRFSGSGSGTDFTLKISRVEAEDVGVYYCSQNTHVPPTFGQGTKVEIERTVAAPSVFIFPPSDEQLKSGTASVVCLLNNFYPREAKVQWKVDNALQSGNSQESVTEQDSKDSTYSLSSTLTLSKADYEKHKVYACEVTHQGLSSPVTKSFNRGEC
notes: as for B1
B11: GpH7-A5/GpH7-B3 variant P329_04F/GpL16-k0 (antibody, human IgG1, kappa)
heavy 1: not shown
heavy 2: not shown
light: DIVMTQSPLSLPVTPGEPASISCQASESLVHSNRNTYLHWYLQKPGQSPQLLIYKVSNRFSGVPDRFSGSGSGTDFTLKISRVEAEDVGVYYCSQNTHVPPTFGQGTKVEIERTVAAPSVFIFPPSDEQLKSGTASVVCLLNNFYPREAKVQWKVDNALQSGNSQESVTEQDSKDSTYSLSSTLTLSKADYEKHKVYACEVTHQGLSSPVTKSFNRGEC
notes: as for B1
B12: GpH7-A5/GpH7-B3 variant A330_18N/GpL16-k0 (antibody, human IgG1, kappa)
heavy 1: not shown
heavy 2: not shown
light: DIVMTQSPLSLPVTPGEPASISCQASESLVHSNRNTYLHWYLQKPGQSPQLLIYKVSNRFSGVPDRFSGSGSGTDFTLKISRVEAEDVGVYYCSQNTHVPPTFGQGTKVEIERTVAAPSVFIFPPSDEQLKSGTASVVCLLNNFYPREAKVQWKVDNALQSGNSQESVTEQDSKDSTYSLSSTLTLSKADYEKHKVYACEVTHQGLSSPVTKSFNRGEC
notes: as for B1
B13: GpH7-A5/GpH7-B3 variant N325_12R/GpL16-k0 (antibody, human IgG1, kappa)
heavy 1: not shown
heavy 2: not shown
light: DIVMTQSPLSLPVTPGEPASISCQASESLVHSNRNTYLHWYLQKPGQSPQLLIYKVSNRFSGVPDRFSGSGSGTDFTLKISRVEAEDVGVYYCSQNTHVPPTFGQGTKVEIERTVAAPSVFIFPPSDEQLKSGTASVVCLLNNFYPREAKVQWKVDNALQSGNSQESVTEQDSKDSTYSLSSTLTLSKADYEKHKVYACEVTHQGLSSPVTKSFNRGEC
notes: as for B1
B14: GpH7-A5/GpH7-B3 variant I336_20W/GpL16-k0 (antibody, human IgG1, kappa)
heavy 1: not shown
heavy 2: not shown
light: DIVMTQSPLSLPVTPGEPASISCQASESLVHSNRNTYLHWYLQKPGQSPQLLIYKVSNRFSGVPDRFSGSGSGTDFTLKISRVEAEDVGVYYCSQNTHVPPTFGQGTKVEIERTVAAPSVFIFPPSDEQLKSGTASVVCLLNNFYPREAKVQWKVDNALQSGNSQESVTEQDSKDSTYSLSSTLTLSKADYEKHKVYACEVTHQGLSSPVTKSFNRGEC
notes: as for B1
B15: GpH7-A5/GpH7-B3 variant P329_08L/GpL16-k0 (antibody, human IgG1, kappa)
heavy 1: not shown
heavy 2: not shown
light: DIVMTQSPLSLPVTPGEPASISCQASESLVHSNRNTYLHWYLQKPGQSPQLLIYKVSNRFSGVPDRFSGSGSGTDFTLKISRVEAEDVGVYYCSQNTHVPPTFGQGTKVEIERTVAAPSVFIFPPSDEQLKSGTASVVCLLNNFYPREAKVQWKVDNALQSGNSQESVTEQDSKDSTYSLSSTLTLSKADYEKHKVYACEVTHQGLSSPVTKSFNRGEC
notes: as for B1

Assays:
FcγRIIa R [1] = molecular target: T1, FcγRIIa R; assay: SPR (Biacore), antibody captured via antigen peptide, FcγR as analyte
Procedure: (§1) The heterodimerized antibodies He Abs in which one of the H chains was introduced with an alteration were assayed for their binding activities to each activating FcγR and inhibitory FcγR according to the method described in Example 4. […] The activating FcγRs in FIGS. 26, 27, 28, and 29 are FcγRIa, FcγRIIa (R), FcγRIIa (H), and FcγRIIIa, respectively.
(§2) Analysis of interaction between objective antibody and the FcγR was carried out using Biacore T100 (GE Healthcare). HBS-EP+ (GE Healthcare) was used as the running buffer, and the measurement temperature was set to 25° C. Chips produced by immobilizing the antigen peptide by the amine coupling method to a Series S Sencor Chip CM5 (GE Healthcare), or alternatively, chips produced by allowing preliminarily biotinylated antigen peptides to interact with and immobilize onto a Series S Sensor Chip SA (certified) (GE Healthcare) were used. Antibodies of interest were captured onto an antigen peptide-immobilized chip, and allowed to interact to each FcγR diluted with running buffer. To regenerate and repeatedly use the chip, the antibodies captured on the chip were washed off by reacting 10 mM glycine-HCl, pH 1.5.

FcγRIIb = molecular target: T2, FcγRIIb; assay: as above
Procedure: as §1, §2

FcγRIIa R [2] = molecular target: T1, FcγRIIa R; assay: ratio of He/Con_2aR to He/Con_2b (binding to FcγRIIb as reference); SPR

Binder | He/Con_2aR (IIaR binding relative to GpH7-A5/GpH7-B3/GpL16-k0) (FcγRIIa R [1]) | He/Con_2b (IIb binding relative to GpH7-A5/GpH7-B3/GpL16-k0) (FcγRIIb) | He_2aR/2b (IIaR/IIb) (FcγRIIa R [2])
B1 | 95.5 % of control (control = 100) | 77.9 % of control (control = 100) | 1.23
B2 | 53.8 % of control (control = 100) | 38.5 % of control (control = 100) | 1.4
B3 | 16.2 % of control (control = 100) | 10.4 % of control (control = 100) | 1.57
B4 | 89 % of control (control = 100) | 70.1 % of control (control = 100) | 1.27
B5 | 42.2 % of control (control = 100) | 26 % of control (control = 100) | 1.63
B6 | 42.7 % of control (control = 100) | 29.1 % of control (control = 100) | 1.47
B7 | 49.6 % of control (control = 100) | 34.6 % of control (control = 100) | 1.44
B8 | 58.9 % of control (control = 100) | 40.5 % of control (control = 100) | 1.45
B9 | 92.1 % of control (control = 100) | 69.1 % of control (control = 100) | 1.33
B10 | 84.1 % of control (control = 100) | 64.4 % of control (control = 100) | 1.31
B11 | 44.7 % of control (control = 100) | 32.2 % of control (control = 100) | 1.39
B12 | 81.1 % of control (control = 100) | 63.7 % of control (control = 100) | 1.27
B13 | 26.1 % of control (control = 100) | 19.1 % of control (control = 100) | 1.37
B14 | 30.3 % of control (control = 100) | 20.3 % of control (control = 100) | 1.5
B15 | 42.8 % of control (control = 100) | 29.1 % of control (control = 100) | 1.47
